Measurements published in article PMC2396850.

Molecular target: various tetraspanins
Test: co-IP

B1: Tumour-associated antigen L6 (L6-Ag), endogenous (natural protein)
chain: MCYGKCARCIGHSLVGLALLCIAANILLYFPNGETKYASENHLSRFVWFFSGIVGGGLLMLLPAFVFIGLEQDDCCGCCGHENCGKRCAMLSSVLAALIGIAGSGYCVIVAALGLAEGPLCLDSLGQWNYTFASTEGQYLLDTSTWSECTEPKHIVEWNVSLFSILLALGGIEFILCLIQVINGVLGGICGFCCSHQQQYDC
In the case of B1, the percent of the total L6-Ag co-immunoprecipitated (% of the total L6-Ag) is reported as 10 to 15.
